Molecular target: mthK, O27564-2

Calcium-gated potassium channel MthK (Methanobacterium thermoautotrophicum) (from UniProt O27564-1) L3D
effect of a mutation on the interaction: disrupting interaction

— IntAct's records for PubMed 18959476
